Among the data in patent publication US20150196663A1 are percentage of RBE4 cells exhibiting multiple internalized vesicles per cell and percentage of primary BMECs exhibiting multiple internalized vesicles per cell values, retold here.

This experiment concerns the target rat transferrin receptor (rat) (UniProt Q99376). The experiment can be described thus: cell-based or functional assay.
Sequence of UniProt Q99376 (Q99376 whole entry): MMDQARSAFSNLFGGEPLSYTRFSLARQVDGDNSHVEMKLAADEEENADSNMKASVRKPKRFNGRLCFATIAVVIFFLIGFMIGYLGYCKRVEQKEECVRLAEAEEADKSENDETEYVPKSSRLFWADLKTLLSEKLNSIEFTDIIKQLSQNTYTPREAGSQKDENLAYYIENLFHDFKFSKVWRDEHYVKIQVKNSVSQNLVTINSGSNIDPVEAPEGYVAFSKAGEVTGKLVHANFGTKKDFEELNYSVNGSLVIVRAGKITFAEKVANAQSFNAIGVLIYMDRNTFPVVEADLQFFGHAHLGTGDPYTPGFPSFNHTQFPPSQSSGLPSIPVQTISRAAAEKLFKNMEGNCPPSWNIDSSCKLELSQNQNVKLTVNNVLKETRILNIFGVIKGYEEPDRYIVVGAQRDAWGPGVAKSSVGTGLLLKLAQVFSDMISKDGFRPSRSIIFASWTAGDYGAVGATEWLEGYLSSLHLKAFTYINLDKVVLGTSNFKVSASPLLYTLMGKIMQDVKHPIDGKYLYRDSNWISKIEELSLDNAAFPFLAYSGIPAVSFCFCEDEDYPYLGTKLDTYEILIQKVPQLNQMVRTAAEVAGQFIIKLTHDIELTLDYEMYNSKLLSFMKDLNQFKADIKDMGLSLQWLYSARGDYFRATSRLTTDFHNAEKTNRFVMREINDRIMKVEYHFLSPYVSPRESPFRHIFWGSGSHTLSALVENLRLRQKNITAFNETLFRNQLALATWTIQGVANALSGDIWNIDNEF

In turn, “OX-26, positive control antibody against the rat transferrin receptor (AbD Serotec, # MCA155G)” showed a percentage of RBE4 cells exhibiting multiple internalized vesicles per cell of 92% and a percentage of primary BMECs exhibiting multiple internalized vesicles per cell of 46%.
